The DeepSol protein solubility set

Assay: soluble on expression in E. coli; label from the status in PepcDB or PDB records

Sequence | soluble on expression in E. coli
MGHHHHHHSHMKSREGSVHPQVEIANLLLIQSSLANLPPGPCWFCLASPEVEKHLVVNIGTHCYLALAKGGLSDDHVLILPIGHYQSVVELSAEVVEEVEKYKATLRRFFKSRGKWCVVFERNYKSHHLQLQVIPVPISCSTTDDIKDAFITQAQEQQIELLEIPEHSDIKQIAQPGAAYFYVELDTGEKLFHRIKKNFPLQFGREVLASEAILNVPDKSDWRQCQISKEDEETLARRFRKDFEPYDFTLDD | not soluble
MTLLPHLATRLFGVPLAIDRPKLDVILSVLGPRVGLAGLAPPGDYTPPERNPVRGHAQIAVIPIHGTLVRRTVGLEAESGLASYTAIGEQLDAALADPGIAAILLDVDSPGGESGGVFDLADRIRVAAAIKPVWAAANDMAFSAAYALACAASRVFVSRTGGVGSIGVIAMHVDQSVKDAKDGVRYTAVFAGARKNDLNPHEPITDEAQAQLQAEVSRIYRLFVATVGSYRGLSAEAVTATEAGLFFGQDAVAAGLADAVGTFDDALAQLTASLSVPAPVASARTPSLNLQMDCSMNTQPDPAAVSVPAADAIGTTAQPPVVASPPAASVASHTDAVEIAQLCTLAGRTDLIAGFLEARATPERVRSQLLAARAEASPEIASRIDPHAQAVSADASHPASPRNPLLQAVKKRLGIQLEHHHHHH | soluble
MGLRDRFSNYLFKKAEKRGYLDNVLGKSIRYSGVYVTDSNILQSSDVYELLQDISNQMVLADIVVEDEFGNEIKDDIALQILRNPNNYLTQSEFIKLMTNTYLLEGETFPILNGAQIHLASNVFTELDDNLVEHFNIGGHEIPPCMIRHVKNIGADHLRGKGILDLGRDTLEGVMSAEKTLTDKYKKGGLLTFLLNLDAHINPQNGAQSKLINAILDQLESIDEARSVKMIPLGKGYSIDTLKSPLDDEKTLAYLNVYKKDLGKFLGINVDTYTELIKEDIEKAMMYIHNKAVRPIMKNFEDHLSLLFYAQNSGKRIKFKINILDFVTYSNKTNIGYNLVRTAITSPDNVADMLGFPKQNTKESQAIYISNDVTEIGKKEATDGSLGGGEENEN | not soluble
MPLITTETGKKMHVLEDGRKLITVIPGDGIGPECVEATLKVLEAAKAPLAYEVREAGASVFRRGIASGVPQETIESIRKTRVVLKGPLETPVGYGEKSANVTLRKLFETYANVRPVREFPNVPTPYAGRGIDLVVVRENVEDLYAGIEHMQTPSVAQTLKLISWKGSEKIVRFAFELARAEGRKKVHCATKSNIMKLAEGTLKRAFEQVAQEYPDIEAVHIIVDNAAHQLVKRPEQFEVIVTTNMNGDILSDLTSGLIGGLGFAPSANIGNEVAIFEAVHGSAPKYAGKNVINPTAVLLSAVMMLRYLEEFATADLIENALLYTLEEGRVLTGDVVGYDRGAKTTEYTEAIIQNLGKTPRKTQVRGYKPFRLPQVDGAIAPIVPRSRRVVGVDVFVETNLLPEALGKALEDLAAGTPFRLKMISNRGTQVYPPTGGLTDLVDHYRCRFLYTGEGEAKDPEILDLVSRVASRFRWMHLEKLQEFDGEPGFTKAQGED | soluble
MAHHHHHHMMRWAVDVTGIDVAEDLEREQRKCVYKVPRAANGESWHAVDDWRANASEYNDELGKVWALTRDEVQDAIAERALTANALFCNVGRTLAGALQRQGSITIAAGCASQLRGSCGRGLQWDGLLSNTQSIVSNDFACDAVPSTREVRVFSTFLNAEGKRMTVTVNMTQPTYRGVDVVAAFLQQAVATNESLSQRYSTNPRLYKLFIADEDTGEEEMAAQLDLGAQNFSCYAVNPMPAAKLFLFPQRTALLNTTTRDVNLTVQVRPLDPQAKAVQRQCVVPADMLAESLEATICSRLPASGIIQGSLRIMHGPMELNINEYYNFGAGCGQPNCPIAERTVLSLFRFGVREVVVNGRAVEEAPTEVLRDLTEDIIIDMGVDEAVSFQQFEVICINKYGARQQRLLCVDGEHLYTMRPNASEALPKTTERTIKDIEEVRIFADKPKYMEIAYTKSSHFEEDHFECTTTYNCALLNEKIRIVRRELRKREAEEQAASVKNETAMQRFMTGIRSRWFGGALQS | not soluble
TTIVSVRRNGHVVIAGDGQATLGNTVMKGNVKKVRRLYNDKVIAGFAGGTADAFTLFELFERKLEMHQGHLVKAAVELAKDWRTDRMLRKLEALLAVADETASLIITGNGDVVQPENDLIAIGSGGPYAQAAARALLENTELSAREIAEKALDIAGDICIYTNHFHTIEELSYKAEFHHHHHH | soluble
MGSDKIHHHHHHMNGQKIIGSQCITQCNPDLRITELIIPGTHDSATSTCYERYYRTQDLSIAEQLDCGVRFLDIRLRKEMVAAHREWVSDIRAEEIFEKCGEFLQKNPQEFVLMRIQNANERKDDFPEYGEALLSKVQQYKSLFYAWDHSQIVQDGNPKWPTIAQAAGKIVPIECAPPSMSINKIDGELWAANWHDNSQILLQDLWDGPTVEEKCVAIKTLIEKGREVHSDILLLNHISATNGELQYPDAYAAYLNEYSSRLWKQLAKRSFRGVQIYDFINPSICQELLRLNFD | not soluble
MLKPLLAIFMISSALSIPLNRSDFLENDHVELMPLEKDGELNDKFRQEMIFSHNLDPSDSKQLSESIKEMFKKTDVNDDGFLTAGELKQQIRKNMEEHLEKSKNDSEIFFDIVDTNKDGSIVWEEFEPHFSKMHEKDHSDSELMDVHTEDPHRVDDEKRMFNRSDITRDGRLDRMEWHIFLHPEYSAQGLVEIVNDLMGVYDKNNDEVVSQDDFVNGIPGTVDELNPEFENMEKLEKERRLREFNEEIDENSDGKATFRELYDYVDPQNFRLASKEVNDIMMLTDANNDEKLSLEELLERDWLLARSSLLSARSSLHDEM | not soluble
METEAIDGYITCDNELSPEREHSNMAIDLTSSTPNGQHASPSHMTSTNSVKLEMQSDEECDRKPLSREDEIRGHDEGSSLEEPLIESSEVADNRKVQELQGEGGIRLPNGERPFHCNQCGASFTQKGNLLRHIKLHSGEKPFKCPFCSYACRRRDALTGHLRTHSVGKPHKCNYCGRSYKQRSSLEEHKERCHNYLQNVSMEAAGQVMSHHVPPMEDCKEQEPIMDNNISLVPFERPAVIEKLTGNMGKRKSSTPQKFVGEKLMRFSYPDIHFDMNLTYEKEAELMQSHMMDQAINNAITYLGAEALHPLMQHPPSTIAEVAPVISSAYSQVYHPNRIERPISRETADSHENNMDGPISLIRPKSRPQEREASPSNSCLDSTDSESSHDDHQSYQGHPALNPKRKQSPAYMKEDVKALDTTKAPKGSLKDIYKVFNGEGEQIRAFKCEHCRVLFLDHVMYTIHMGCHGYRDPLECNICGYRSQDRYEFSSHIVRGEHTFH | soluble
MSLSNALVNPREAPAHGRFVPAPILAHRNCTQGALNMLEAKLKPHREYLLAQSAGQKLFLTLTVKPTAEARQARPDLSVVFVVDTSGSMREVVTEPTERTGRTTQVDGQVYEVVKGGKNKMQLMIEALRGIVTSTLIRPGDRLALVKFDDTAEVLVPFITASNQAQLAAAVDKLDWYSGGTHMGAGMRAGAGLLTGERGSRRMVLISDGQTFDAPLVEDQIGALAGLQVPVTVVAVGDEVNADLLTAIADRTQGQPLDIVPDTQNPQPPAIRASELPAALLGDLQKAAAEVVTGVALSVRTVKDVVLERVTRVQPTQTEVALRADGPLPLGNVDAGSGATFVLEFTLPARPATKMRLAQLGLTYEVPGANYRGEIPPLDVVVEFTGEEALAARIDPEVMGWVQQRNIEGLVAQATREANQNPEQAAKTLEQARAMTQRLGNGAMTQALDRAIGELGSSKTISLGTAKTLKIGAKTQTLSSDAALPSDEDIRRMTGEGGSHHHHHH | soluble
MRIMGLDVGSKTVGVAISDPLGFTAQGLEIIKIDEEKAEFGFTRLEELVKQYQVEQFVIGLPKNMNNTNGPRVDASITYGNHIEHLFGLPVHYQDERLTTVEAERMLIEQADISRGKRKKVIDKLAAQLILQNYLNRNFLEHHHHH | soluble
MSLKQYETIILHRHVRPDPDAYGSQMGLAEIIRASFPEKKVYSVGNDEKSLQFLGIVDEITDEIYKDALVIVCDTANQERISDGRFNLGKALIKIDHHPNDDAYGDLLWVDTTASSCSEMIVAFWEMFSDELILNETAARLLYAGIVGDTGRFLYPSTTEETLRLSAHLVTFPFDRPALYRELYELPKNTVKLSGYILQNFVMDENGAATVYLSDTLLNEFEVDPRDASALVSCIENVKGIKAWIMFIQEGPVFRARLRSKGPVINELAKEYGGGGHPLASGATLHNEEEIKEMTAKLQRIEGHHHHHH | not soluble
MSLRSTLAGTVRTQQGEIYLNGDADWSQIENWRARVTAKGSKVRITVPPMVRMDVSPDVVFEATPNLFTLDGRVDVPWARIVVHDLPESAVGVSSDVVMLNDNLQPEEPKTASIPINSNLIVHVGNNVRIDAFGLKARLTGDLNVVQDKQGLGLNGQINIPEGRFHAYGQDLIVRKGELLFSGPPDQPYLNIEAIRNPDATEDDVIAGVRVTGLADEPKAEIFSDPAMSQQAALSYLLRGQGLESDQSDSAAMTSMLIGLGVAQSGQIVGKIGETFGVSNLALDTQGVGDSSQVVVSGYVLPGLQVKYGVGIFDSIATLTLRYRLMPKLYLEAVSGVDQALDLLYQFEFEGHHHHHH | soluble
MSLNLLALPLRSEVELADARTRARHIAELLGLGNQDQVRVATVVSELARNVLLYAGSGQVTFSVRDEAGRSTLLIEVRDQGPGLGHLDEVLGGQYRSKTGMGVGLTGTRRLMDEFDIQTAPGKGTVVRVGKHLPAVVGDAEQRRVAEVLGSSGPRDLLTALSVQNRDLLETLAALNEREERLQVLNQELQDTNRGVVALYAELEEKAERLREANGLKTTFLSYMSHELRTPLHSMLGLARILSGQLDGPLNPEQLKQVQLLQGAAGDLLEMVNGLLDLAKMEAGKTDVDVTTFEVRELFGTLRALFLPLLDNPAVNLIFEDAAGFPPLTTDQRKVEQVLRNFIANALKFTAAGEVRVTAQLLPSGDRVRFTVQDTGIGLSDEEQAQLFQDFSQVGRPGRPAGTGLGLSIARKFTELLGGRVGVQSAPGAGAEFSAELPVVYPGVGAAKRPRALLIDDSEADRYVLTTLLTRAGYEVDEVAYAEPGLEQARSGAYDAVVLDLNLPDRSGLDVLRALRENAGTRSLPVLVVIAAALDAAERAALETLGASVHLKEALYQDEQVLFASLPSGSVHYGEAEGHHHHHH | soluble
MICWGEQKRQADPGFFCRKIVEGVSQPIWLVSDTRRTSDIQWFQEAYGAVIQTVRVVASEQSRQQRGWVFTPGVDDAESECGLDNFGNFDWVIENHGDEQCLEDQLEHLLGFIQAKL | not soluble
MAHHHHHHMPHIPRNHYLVVHDAIRKLLGPDAQLAAFVKAQHAFQCDMLVNDARTDPEELTRAGARHSGGGIGDDAAAKAGVGELARGLQAVLGICDVVPHTRRVDVIFRDRSLIQLALGAAKRDLPYALETGADVNQEPDWRLRNRLRISLGYDEELFLAQCTRSMNVAARILEKCAFDYARYSALMSTNAAMAAMYEASGQRWQAVLPPVTYWQAHCYSLMKAYPCRHYQQIVATVEHNFAAYYGEFPMTNPYCDGEDLNTIQVVRWLCEAFNAGAAVSHVTSAASSPVTVNEWQTVDCSMPAAMEDGDAEKGAAVMDNMADGRSSQEGRH | not soluble
MGSDKIHHHHHHMIETRQKQERVILIGVALPNSENFDLSMEELASLAKTAGAEVVQTHTQKRDHYDSKSFIGSGKLLEIKQIIATDAIDSVIVNNRLTPRQNAYLEAELGVKVIDRMQLILDIFAMRARSHEGKLQVHLAQLKYMLPRLVGQGIMLSRQAGGIGSRGPGESQLELNRRSIRKQIADIERQLKNAEKNRETNREKRLDSQIFKIGLIGYTNAGKSTIMNVLTDNKQYEADELFATLDATTKQIYLTDHFQATLTDTVGFIQDLPTELVAAFKSTLEESRQVDLLLHVIDASDPNHEEHEKVVHDLLKELGMTAIPRLLVYNKMDKAENFIASQFPHISLSAKSDEAAALLRQSILEKIKTLFVPFTITWRQEKSYKLYELDKIALLTSYDVKQELQEIKGYISEKNKWRLEEFYRELS | not soluble
